Measured values from paper PMC3314686 (2012).

B1: GFP-DOR (human DOR/TP53INP2, full length) [modified: [35S]methionine label; [35S]methionine label] [human] / GST-LC3B (full-length proform) [human] (parent complex)
chain 1: MFQRLSSLFFSTPSPPEDPDCPRAFVSEEDEVDGWLIIDLPDSYAAPPSPGAAPAPAGRPPPAPSLMDESWFVTPPACFTAEGPGLGPARLQSSPLEDLLIEHPSMSVYVTGSTIVLEPGSPSPLPDAALPDGDLSEGELTPARREPRAARHAAPLPARAALLEKAGQVRRLQRARQRAERHALSAKAVQRQNRARESRPRRSKNQSSFIYQPCQRQFNY
chain 2: not shown

Variants of: B1
Assay: GST pull-down; in vitro translated [35S]methionine-labelled GFP fusion; three independent experiments; parent: 21; read off a plot

| Variant | response [% Binding] |
| --- | --- |
| chain 1 W35A, chain 1 I38A | ~3.4 |
